The results in this text go back to paper PMC7802198, “A novel humanized Frizzled-7-targeting antibody enhances antitumor effects of Bevacizumab against triple-negative breast cancer via blocking Wnt/β-catenin signaling pathway” (Journal of Experimental & Clinical Cancer Research : CR, 2021).

As a reminder, the Kd is a measure of binding affinity in units of concentration. The koff is the first-order rate constant of dissociation. As usually defined, the kon is the rate constant with which the complex forms.

Bounds are passed on as bounds.

Assay in all cases: BLI; Fortebio Octet Red96; SHH002-hu1 captured on Anti-Human Fab-CH1 2nd Generation Sensor; rhFzd1/2/5/7/8 in solution at different concentrations (rhFzd7: 6.25, 25, 100, 400 nmol/L); KB buffer (0.1% BSA + 0.05% Tween 20 in PBS, pH 7.2); KD from kd/ka
What all share (settings): both partners purified
A general note: BLI is a label-free optical method that tracks binding on a fibre tip over time.

In one experiment the target is T1, rhFzd5 (Homo sapiens, UniProt Q13467).
T1 construct: Frizzled-5, human, recombinant
T1 sequence (Q13467 27-585): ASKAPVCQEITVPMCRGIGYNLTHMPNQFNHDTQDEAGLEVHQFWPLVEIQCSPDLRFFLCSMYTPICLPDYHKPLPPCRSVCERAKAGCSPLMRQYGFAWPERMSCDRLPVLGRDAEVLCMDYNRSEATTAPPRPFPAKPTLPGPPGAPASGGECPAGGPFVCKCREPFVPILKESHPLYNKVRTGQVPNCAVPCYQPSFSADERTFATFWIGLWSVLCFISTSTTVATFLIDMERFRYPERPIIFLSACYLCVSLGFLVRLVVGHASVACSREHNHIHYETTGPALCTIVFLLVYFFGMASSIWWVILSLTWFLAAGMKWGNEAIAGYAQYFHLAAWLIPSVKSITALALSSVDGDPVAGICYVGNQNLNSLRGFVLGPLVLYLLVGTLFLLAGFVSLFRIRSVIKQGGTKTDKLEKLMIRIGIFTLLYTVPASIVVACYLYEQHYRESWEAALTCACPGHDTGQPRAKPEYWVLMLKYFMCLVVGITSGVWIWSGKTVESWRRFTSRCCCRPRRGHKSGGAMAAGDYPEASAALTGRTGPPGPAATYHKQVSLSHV

In another experiment the target is T2, rhFzd8 (Homo sapiens, UniProt Q9H461).
T2 construct: Frizzled-8, human, recombinant
T2 sequence (Q9H461 28-694): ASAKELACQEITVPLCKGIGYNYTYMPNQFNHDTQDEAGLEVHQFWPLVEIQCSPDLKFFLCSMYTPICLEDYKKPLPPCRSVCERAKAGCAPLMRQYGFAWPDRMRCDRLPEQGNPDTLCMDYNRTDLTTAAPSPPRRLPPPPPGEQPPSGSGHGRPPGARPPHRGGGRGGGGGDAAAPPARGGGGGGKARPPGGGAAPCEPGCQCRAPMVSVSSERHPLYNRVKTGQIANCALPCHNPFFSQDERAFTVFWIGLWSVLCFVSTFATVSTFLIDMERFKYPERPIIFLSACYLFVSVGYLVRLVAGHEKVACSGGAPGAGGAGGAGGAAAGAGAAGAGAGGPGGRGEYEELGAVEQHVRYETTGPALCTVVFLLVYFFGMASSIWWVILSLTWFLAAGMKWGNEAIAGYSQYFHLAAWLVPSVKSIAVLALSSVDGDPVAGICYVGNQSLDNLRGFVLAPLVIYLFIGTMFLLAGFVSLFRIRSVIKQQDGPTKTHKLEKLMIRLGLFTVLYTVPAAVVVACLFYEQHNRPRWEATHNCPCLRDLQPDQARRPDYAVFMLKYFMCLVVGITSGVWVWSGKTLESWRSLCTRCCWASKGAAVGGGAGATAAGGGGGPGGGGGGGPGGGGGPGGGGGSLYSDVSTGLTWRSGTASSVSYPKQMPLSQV

The target in another experiment is T3, rhFzd7 (Homo sapiens, UniProt O75084).
T3 construct: Frizzled-7, human, recombinant; the discussion says only that the recombinant human Fzd7 extracellular CRD protein was used to immunize mice; also called recombinant human Frizzled-7

A further experiment deals with T4, rhFzd1 (Homo sapiens, UniProt Q9UP38).
T4 construct: Frizzled-1, human, recombinant
T4 sequence (Q9UP38 70-647): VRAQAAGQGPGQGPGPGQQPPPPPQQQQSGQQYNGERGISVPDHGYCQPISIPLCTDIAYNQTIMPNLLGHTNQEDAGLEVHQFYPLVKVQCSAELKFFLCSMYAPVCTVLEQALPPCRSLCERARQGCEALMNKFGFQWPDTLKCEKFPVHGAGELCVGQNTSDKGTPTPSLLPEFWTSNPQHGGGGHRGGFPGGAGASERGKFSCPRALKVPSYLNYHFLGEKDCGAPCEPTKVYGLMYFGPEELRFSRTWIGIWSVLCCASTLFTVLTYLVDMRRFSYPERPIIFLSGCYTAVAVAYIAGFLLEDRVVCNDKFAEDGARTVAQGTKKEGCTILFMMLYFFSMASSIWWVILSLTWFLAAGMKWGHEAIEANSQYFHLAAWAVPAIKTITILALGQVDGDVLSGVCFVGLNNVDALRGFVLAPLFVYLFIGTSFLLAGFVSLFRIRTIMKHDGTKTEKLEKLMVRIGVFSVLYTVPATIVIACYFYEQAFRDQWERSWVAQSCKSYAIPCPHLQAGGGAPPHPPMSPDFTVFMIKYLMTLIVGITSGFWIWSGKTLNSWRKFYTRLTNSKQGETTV

A further experiment deals with T5, rhFzd2 (Homo sapiens, UniProt Q14332).
T5 construct: Frizzled-2, human, recombinant
T5 sequence (Q14332 24-565): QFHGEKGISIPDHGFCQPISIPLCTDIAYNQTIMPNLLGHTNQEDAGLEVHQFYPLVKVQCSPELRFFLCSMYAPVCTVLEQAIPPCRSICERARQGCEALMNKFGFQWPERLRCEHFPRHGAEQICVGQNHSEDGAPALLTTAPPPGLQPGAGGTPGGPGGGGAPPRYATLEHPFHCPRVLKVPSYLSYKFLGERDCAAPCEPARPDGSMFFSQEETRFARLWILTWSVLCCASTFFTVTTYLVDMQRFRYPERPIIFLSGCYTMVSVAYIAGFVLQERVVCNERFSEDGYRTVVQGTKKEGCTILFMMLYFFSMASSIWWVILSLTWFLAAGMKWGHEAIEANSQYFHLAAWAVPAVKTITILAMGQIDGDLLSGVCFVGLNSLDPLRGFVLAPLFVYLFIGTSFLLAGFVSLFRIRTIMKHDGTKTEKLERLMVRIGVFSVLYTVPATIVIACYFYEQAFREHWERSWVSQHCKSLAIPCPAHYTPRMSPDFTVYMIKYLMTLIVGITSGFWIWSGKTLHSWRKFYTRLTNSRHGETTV

B1: SHH002-hu1 (antibody, V domains shown)
VH: QVQLVQSGAEVKKPGASVKMSCKASGYTFTTYTMHWVRQAPGQGLEWIGYINPRSGYTNYNQKFQGRATVTADKSTSTAYMELSSLRSEDTAVYYCARRGYFDYWGQGTTVTVSS
VL: DIQLTQSPSSLSVSVGDRATITCRASESVDDYGNTFMHWYQQKPGKAPKLLIYLASNLQSGVPSRFSGSGSRTDFTLTISSVQAEDAATYYCQQNNEDPYTFGQGTKLEIK
notes: Whole antibody of 150 kDa (HC 50 kDa, LC 25 kDa); humanization degree 98%; detected with anti-human IgG H&L; also called humanized antibody targeting Fzd7; humanized anti-Fzd7 antibody
Turning to B1, the binding result in the experiment with rhFzd5, with rhFzd8, in the experiment with rhFzd1 and with rhFzd2 was “no binding” throughout. In addition, in the experiment with rhFzd7, the Kd was less than 1 pM. The off-rate (koff) with rhFzd7 was less than 1e-07 s⁻¹. The on-rate constant (kon) with rhFzd7 is 400000 M⁻¹ s⁻¹.
